Results taken from publication PMC7450096, “Structural mechanism for replication origin binding and remodeling by a metazoan origin recognition complex and its co-loader Cdc6” (Nature Communications, 2020).

Key:
wild type DmORC = target: T1, wild type DmORC (Drosophila melanogaster, UniProt O16810+Q9W102); test: NADH-coupled ATPase assay (PK/LDH), Michaelis-Menten fit; type: biochemical; conditions: pH 7.6, 10 mM magnesium acetate, 300 mM potassium glutamate, 27 °C, no DNA; Orc1/4 site
T1 construct: gene Orc1; full-length heterohexamer Orc1-6; 6xHis (Orc1) and MBP (Orc4) tags cut by TEV; Hi5 insect cells; with Origin recognition complex subunit 2; Origin recognition complex subunit 3; Origin recognition complex subunit 5; Origin recognition complex subunit 6

[1] = target: T2, ATP-DmORC (DmORC^Orc1ΔN), DNA-free (Drosophila melanogaster, UniProt O16810+Q24169+Q7K2L1+Q9W102); test: cryo-EM structure; type: binding; conditions: no DNA, no Cdc6; active conformation
T2 construct: gene Orc1; heterohexamer; Orc1 lacking N-terminal 439 residues (truncation inferred for the DNA-free structure); tags cut by TEV; Hi5 insect cells; with Origin recognition complex subunit 2; Origin recognition complex subunit 6

[2] = target: T3, DmORC Orc1deltaN;DmCdc6deltaN241 (Drosophila melanogaster;Drosophila …, UniProt O16810;Q24168;Q7K2L1;Q9W102;Q24169;Q9Y1B2;Q9VSM9 …, |del1-241); test: cryo-EM; ATP, Mg2+; state 1, bend ~22 deg; Anisotropy: 1 nM dsDNA, 25 mM HEPES-KOH pH 7.6, 300 mM K-glutamate, 10 mM Mg-acetate, 10% glycerol, 0.1% NP40, 1 mM DTT, 0.1 mg/mL BSA, 0 or 1 mM ATP, 25 C, 40; conditions: protein: recombinant;recombinant; tags: tags cleaved;6xHis-MBP cleaved by TEV; copies: 1;1;1;1;1;1;1; blunt
DmORC (Orc1-6) wild type [3] = target: T4, DmORC (Orc1-6) wild type (Drosophila melanogaster, UniProt O16810;Q24168;Q7K2L1;Q9W102;Q24169;Q9Y1B2 1-924;1-618;1-721;1-459;1-460;1-257); test: fluorescence anisotropy; 1 mM ATP; Anisotropy: 1 nM dsDNA, 25 mM HEPES-KOH pH 7.6, 300 mM K-glutamate, 10 mM Mg-acetate, 10% glycerol, 0.1% NP40, 1 mM DTT, 0.1 mg/mL BSA, 0 or 1 mM ATP, 25 C, 40; conditions: protein: recombinant; tags: 6xHis-Orc1 and MBP-Orc4 tags cleaved by TEV; copies: 1;1;1;1;1;1; label: 5' fluorescein-dT on top strand; blunt 40 bp; the 5' fluorescein-dT may add one unpaired T
DmORC Orc3-K141A = DmORC Orc3-K141A (Drosophila melanogaster, UniProt O16810;Q24168;Q7K2L1;Q9W102;Q24169;Q9Y1B2 1-924;1-618;1-721;1-459;1-460;1-257, K141A); test: as above; conditions: protein: recombinant; tags: tags cleaved; copies: 1;1;1;1;1;1; label: 5' fluorescein-dT (/5FluorT/) on top strand; blunt 40 bp; the 5' fluorescein-dT may add one unpaired T
DmORC Orc4-R97A = DmORC Orc4-R97A (Drosophila melanogaster, UniProt O16810;Q24168;Q7K2L1;Q9W102;Q24169;Q9Y1B2 1-924;1-618;1-721;1-459;1-460;1-257, R97A); test: as above; conditions: protein: recombinant; tags: tags cleaved; copies: 1;1;1;1;1;1; label: 5' fluorescein-dT (/5FluorT/) on top strand; blunt 40 bp; the 5' fluorescein-dT may add one unpaired T
DmORC (Orc1-6) wild type [4] = target: T4, DmORC (Orc1-6) wild type; test: fluorescence anisotropy; 1 mM ATP; Hill fit (quadratic fit 1.7 nM); Anisotropy: 1 nM dsDNA, 25 mM HEPES-KOH pH 7.6, 300 mM K-glutamate, 10 mM Mg-acetate, 10% glycerol, 0.1% NP40, 1 mM DTT, 0.1 mg/mL BSA, 0 or 1 mM ATP, 25 C, 40; conditions: protein: recombinant; tags: 6xHis-Orc1 and MBP-Orc4 tags cleaved by TEV; copies: 1;1;1;1;1;1; label: 5' fluorescein-dT on top strand; blunt 40 bp; the 5' fluorescein-dT may add one unpaired T
[5] = target: T5, Drosophila origin recognition complex, full-length (DmORC) (Drosophila, UniProt O16810 1-924; Q24168 1-618; Q7K2L1 1-721; Q9W102 1-459; Q24169 1-460; Q9Y1B2 …); test: pull-down; MBP-DmCdc6 or 6xHis-MBP-DmCdc6ΔN (200 nM) as bait on amylose beads; DmORC (100 nM) with 60 bp AT-rich dsDNA (100 nM); 25 mM HEPES-KOH pH 7.6, 300 mM potassium glutamate, 10 mM magnesium acetate, 10% glycerol, 1 mM DTT, 0 or 1 mM ATP; 25 °C; SDS-PAGE and silver staining; conditions: both partners purified
T5 construct: Orc1, Drosophila, subunit of full-length DmORC; Orc2, Drosophila, subunit of full-length DmORC; Orc3, Drosophila, subunit of full-length DmORC; Orc4, Drosophila, subunit of full-length DmORC; Orc5, Drosophila, subunit of full-length DmORC; Orc6, Drosophila, subunit of full-length DmORC; Heterohexamer Orc1-6; also called wild type DmORC; not shown: 6xHis, N-terminal, cleaved; MBP, N-terminal, …

DmORC Orc1deltaN = DmORC Orc1deltaN (Drosophila melanogaster, UniProt O16810;Q24168;Q7K2L1;Q9W102;Q24169;Q9Y1B2 440-924;1-618;1-721;1-459;1-460;1-257); test: cryo-EM; gel filtration; ATP, Mg2+; Anisotropy: 1 nM dsDNA, 25 mM HEPES-KOH pH 7.6, 300 mM K-glutamate, 10 mM Mg-acetate, 10% glycerol, 0.1% NP40, 1 mM DTT, 0.1 mg/mL BSA, 0 or 1 mM ATP, 25 C, 40; conditions: protein: recombinant; tags: tags cleaved; copies: 1;1;1;1;1;1; blunt
[6] = target: T3, DmORC Orc1deltaN;DmCdc6deltaN241; test: cryo-EM; gel filtration; ATP, Mg2+; DNA bent 46 deg; Anisotropy: 1 nM dsDNA, 25 mM HEPES-KOH pH 7.6, 300 mM K-glutamate, 10 mM Mg-acetate, 10% glycerol, 0.1% NP40, 1 mM DTT, 0.1 mg/mL BSA, 0 or 1 mM ATP, 25 C, 40; conditions: protein: recombinant;recombinant; tags: tags cleaved;6xHis-MBP cleaved by TEV; copies: 1;1;1;1;1;1;1; blunt

T1 sequence (O16810 whole entry): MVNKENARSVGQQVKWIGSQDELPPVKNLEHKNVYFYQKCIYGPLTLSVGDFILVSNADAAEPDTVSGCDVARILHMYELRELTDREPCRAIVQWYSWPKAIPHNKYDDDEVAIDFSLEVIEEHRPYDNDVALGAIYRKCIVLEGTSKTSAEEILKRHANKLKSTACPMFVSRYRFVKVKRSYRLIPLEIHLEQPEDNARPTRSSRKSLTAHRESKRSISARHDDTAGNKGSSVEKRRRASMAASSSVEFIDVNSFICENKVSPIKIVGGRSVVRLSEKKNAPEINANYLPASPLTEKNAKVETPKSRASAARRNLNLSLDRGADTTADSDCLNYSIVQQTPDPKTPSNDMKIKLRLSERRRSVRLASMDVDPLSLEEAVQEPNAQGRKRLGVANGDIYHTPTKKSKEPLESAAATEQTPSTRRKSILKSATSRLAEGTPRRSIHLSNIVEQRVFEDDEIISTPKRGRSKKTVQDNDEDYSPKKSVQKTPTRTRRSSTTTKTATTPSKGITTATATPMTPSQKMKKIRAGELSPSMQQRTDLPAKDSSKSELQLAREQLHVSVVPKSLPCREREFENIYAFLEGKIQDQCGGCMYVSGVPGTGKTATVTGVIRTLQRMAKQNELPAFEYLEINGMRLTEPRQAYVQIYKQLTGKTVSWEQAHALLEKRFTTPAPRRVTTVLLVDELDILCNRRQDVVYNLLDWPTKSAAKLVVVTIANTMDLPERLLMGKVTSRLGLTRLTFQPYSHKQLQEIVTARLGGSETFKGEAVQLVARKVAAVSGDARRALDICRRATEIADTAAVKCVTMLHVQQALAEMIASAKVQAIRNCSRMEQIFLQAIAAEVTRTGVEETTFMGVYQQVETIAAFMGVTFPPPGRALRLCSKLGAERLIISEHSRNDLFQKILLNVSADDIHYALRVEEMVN
T1 sequence (Q9W102 1-459): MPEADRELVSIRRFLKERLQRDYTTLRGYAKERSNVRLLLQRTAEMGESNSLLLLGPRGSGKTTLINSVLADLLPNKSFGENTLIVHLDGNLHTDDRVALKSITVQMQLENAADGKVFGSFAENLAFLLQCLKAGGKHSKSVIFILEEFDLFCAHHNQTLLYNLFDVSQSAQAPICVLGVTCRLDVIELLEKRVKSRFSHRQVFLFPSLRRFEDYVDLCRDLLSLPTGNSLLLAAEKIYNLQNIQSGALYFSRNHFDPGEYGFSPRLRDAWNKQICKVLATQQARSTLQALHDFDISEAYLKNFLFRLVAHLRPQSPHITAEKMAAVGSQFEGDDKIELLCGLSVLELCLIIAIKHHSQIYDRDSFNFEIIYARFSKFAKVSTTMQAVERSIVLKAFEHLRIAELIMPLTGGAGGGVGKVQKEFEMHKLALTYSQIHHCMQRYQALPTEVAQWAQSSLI
T1 sequence (Q24168 whole entry partner): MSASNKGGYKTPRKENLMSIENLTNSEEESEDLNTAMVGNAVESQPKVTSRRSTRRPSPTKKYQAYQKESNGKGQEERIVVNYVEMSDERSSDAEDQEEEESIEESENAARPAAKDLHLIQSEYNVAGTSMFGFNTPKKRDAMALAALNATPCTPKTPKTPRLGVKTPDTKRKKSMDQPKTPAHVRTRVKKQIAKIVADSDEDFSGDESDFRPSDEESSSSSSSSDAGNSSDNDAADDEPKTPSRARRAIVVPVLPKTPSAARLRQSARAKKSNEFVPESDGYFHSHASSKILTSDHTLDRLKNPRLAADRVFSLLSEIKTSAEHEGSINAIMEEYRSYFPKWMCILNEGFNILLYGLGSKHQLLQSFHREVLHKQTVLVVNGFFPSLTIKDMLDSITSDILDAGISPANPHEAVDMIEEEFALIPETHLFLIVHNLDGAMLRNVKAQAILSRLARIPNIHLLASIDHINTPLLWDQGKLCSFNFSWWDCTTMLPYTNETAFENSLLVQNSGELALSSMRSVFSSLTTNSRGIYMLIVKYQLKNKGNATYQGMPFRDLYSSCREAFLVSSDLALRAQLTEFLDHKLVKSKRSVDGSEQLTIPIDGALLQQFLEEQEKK
T1 sequence (Q7K2L1 1-721 partner): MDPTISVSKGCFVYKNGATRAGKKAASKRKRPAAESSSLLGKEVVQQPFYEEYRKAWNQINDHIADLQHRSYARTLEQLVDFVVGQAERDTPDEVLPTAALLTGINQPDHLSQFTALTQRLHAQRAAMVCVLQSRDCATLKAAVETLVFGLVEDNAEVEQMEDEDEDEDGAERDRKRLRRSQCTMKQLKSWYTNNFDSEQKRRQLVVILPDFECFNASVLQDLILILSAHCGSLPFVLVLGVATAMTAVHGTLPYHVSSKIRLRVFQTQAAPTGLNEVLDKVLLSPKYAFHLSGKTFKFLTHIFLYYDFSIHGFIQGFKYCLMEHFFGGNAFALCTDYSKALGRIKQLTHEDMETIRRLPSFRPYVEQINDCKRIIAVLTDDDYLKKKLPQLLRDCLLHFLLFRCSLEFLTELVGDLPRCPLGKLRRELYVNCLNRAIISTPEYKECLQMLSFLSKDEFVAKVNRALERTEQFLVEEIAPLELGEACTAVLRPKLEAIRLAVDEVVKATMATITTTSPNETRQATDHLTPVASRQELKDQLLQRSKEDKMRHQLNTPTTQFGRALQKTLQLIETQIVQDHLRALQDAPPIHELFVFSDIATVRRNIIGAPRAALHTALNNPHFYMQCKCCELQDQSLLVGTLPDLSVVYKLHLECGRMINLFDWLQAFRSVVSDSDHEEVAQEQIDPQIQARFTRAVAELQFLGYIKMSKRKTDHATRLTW
T1 sequence (Q24169 whole entry partner): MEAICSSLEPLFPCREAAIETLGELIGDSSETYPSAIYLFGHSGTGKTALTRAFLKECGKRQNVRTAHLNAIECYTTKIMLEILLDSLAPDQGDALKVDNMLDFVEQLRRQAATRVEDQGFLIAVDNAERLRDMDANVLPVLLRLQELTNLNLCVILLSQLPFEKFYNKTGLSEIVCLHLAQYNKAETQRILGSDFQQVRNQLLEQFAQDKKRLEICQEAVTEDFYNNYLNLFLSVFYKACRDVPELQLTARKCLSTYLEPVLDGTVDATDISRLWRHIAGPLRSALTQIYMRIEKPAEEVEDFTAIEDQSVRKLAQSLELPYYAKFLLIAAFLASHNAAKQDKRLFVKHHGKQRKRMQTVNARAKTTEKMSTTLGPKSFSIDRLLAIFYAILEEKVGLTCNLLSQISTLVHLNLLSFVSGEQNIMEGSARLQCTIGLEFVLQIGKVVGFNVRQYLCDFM
T1 sequence (Q9Y1B2 whole entry partner): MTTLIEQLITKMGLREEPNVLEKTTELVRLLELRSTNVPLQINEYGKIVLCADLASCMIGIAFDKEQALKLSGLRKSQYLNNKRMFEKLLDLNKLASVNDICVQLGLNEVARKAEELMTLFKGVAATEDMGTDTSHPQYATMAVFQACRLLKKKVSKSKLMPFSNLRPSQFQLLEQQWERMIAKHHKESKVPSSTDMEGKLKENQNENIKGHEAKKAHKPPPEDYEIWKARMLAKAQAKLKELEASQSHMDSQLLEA
T2 sequence (O16810 440-924, stated change not applied): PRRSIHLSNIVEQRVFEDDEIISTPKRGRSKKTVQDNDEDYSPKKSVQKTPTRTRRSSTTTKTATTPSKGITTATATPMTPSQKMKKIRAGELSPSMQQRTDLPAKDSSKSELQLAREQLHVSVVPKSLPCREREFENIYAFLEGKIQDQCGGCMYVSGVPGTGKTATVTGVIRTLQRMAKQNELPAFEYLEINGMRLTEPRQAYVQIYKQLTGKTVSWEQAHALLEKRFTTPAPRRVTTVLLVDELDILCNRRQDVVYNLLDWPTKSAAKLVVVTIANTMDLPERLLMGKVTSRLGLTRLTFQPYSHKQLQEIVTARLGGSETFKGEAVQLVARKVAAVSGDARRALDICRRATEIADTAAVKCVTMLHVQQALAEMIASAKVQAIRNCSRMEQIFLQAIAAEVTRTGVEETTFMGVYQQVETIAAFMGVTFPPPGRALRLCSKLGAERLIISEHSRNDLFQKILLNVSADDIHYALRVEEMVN
T2 sequence (Q9W102 1-459, stated change not applied): as the sequence (Q9W102 1-459) above
T2 sequence (Q24169 whole entry, stated change not applied, the tested form may be a part): as the sequence (Q24169 whole entry partner) above
T2 sequence (Q7K2L1 1-721, stated change not applied): as the sequence (Q7K2L1 1-721 partner) above
T2 sequence (Q24168 whole entry partner, the tested form may be a part): as the sequence (Q24168 whole entry partner) above
T2 sequence (Q9Y1B2 whole entry partner, the tested form may be a part): as the sequence (Q9Y1B2 whole entry partner) above

With `Nc1ncnc2c1ncn2[C@@H]1O[C@H](COP(=O)(O)OP(=O)(O)OP(=O)(O)O)[C@@H](O)[C@H]1O` [ATP] the “NADH-coupled ATPase assay (PK/LDH), Michaelis-Menten fit” value (wild type DmORC) was “we measured the ATP hydrolysis rates of wild type DmORC” and the cryo-EM structure [1] was “our DNA-free ATP-DmORC cryo-EM structure”.

B1: 60 bp poly(dA.dT) (dsDNA)
DNA 1: AAAAAAAAAAAAAAAAAAAAAAAAAAAAAAAAAAAAAAAAAAAAAAAAAAAAAAAAAAAA
DNA 2: TTTTTTTTTTTTTTTTTTTTTTTTTTTTTTTTTTTTTTTTTTTTTTTTTTTTTTTTTTTT
B1: binds [2].

B2: 40 bp 100% GC (dsDNA)
DNA 1: CGCCGGGGCCGGGGGCGCCCCGCCGCGCGGGGCCGGGCCC
DNA 2: GGGCCCGGCCCCGCGCGGCGGGGCGCCCCCGGCCCCGGCG
For B2, the binding signal (DmORC (Orc1-6) wild type [3]) was ~20 fold higher Kd than poly(dA.dT).

B3: 40 bp AT-rich (ARS1-like) (dsDNA)
DNA 1: TTTTGAAAAGCAAGCATAAAAGATCTAAACATAAAATCTG
DNA 2: CAGATTTTATGTTTAGATCTTTTATGCTTGCTTTTCAAAA
In the case of B3, the binding signal (DmORC Orc3-K141A) is reported as ~3 fold higher Kd than wild type and the binding signal (DmORC Orc4-R97A) is reported as ~3 fold higher Kd than wild type.

B4: 40 bp poly(dA.dT) (dsDNA)
DNA 1: TTTTTTTTTTTTTTTTTTTTTTTTTTTTTTTTTTTTTTTT
DNA 2: AAAAAAAAAAAAAAAAAAAAAAAAAAAAAAAAAAAAAAAA
B4 was tested, and the Kd (DmORC (Orc1-6) wild type [4]) was 2.1 nM.

B5: full-length MBP-tagged Drosophila Cdc6 (MBP-DmCdc6) (natural protein, UniProt Q9VSM9 1-662, looked up)
chain: MAAVRRSTRLSSISKATAASPLPPSTQTPRRSEVWKRRQPKKVLADSDEEEEVVTAIYDLTSPVSENNENRNVLNKMDKISRRRTSQVQVAQSELPKTPRSTKKTVQSAGSSRAKREEENREATARFLEGEQDSEVDPLHGSPPKQRKLQPLPQHLISPSRLLDRLSIDERQEEEVEATTHKTETAEQQPKHQAKDEAKPRPKQQEDPLAQKQQEKPPTKQPNKNQTKEKSNIQTNEETQQNNLPSPSRNKYQNARRVLNSAETQNLPGRESQLQELREFFSNHLESQTSGSLYVSGQPGTGKTACLSLLLRDPDFSKRLQRVYINCTSIASVGAVYKKLCTELQLKVSGRTERDHLEAIQRHLKTAKRMLLLVLDEIDQLCTSRQEVLYTIFEWPALPGSRILLVGIANSLDLTDRALMRLNARCELKPRLMHFPPYSKQQIVEIFKSRLAEAEVLDVFPPVTLQLLAAKVSAISGDVRRALDIGRRVVEIAEQQKRDGEKEFNMKALQLEGKDAVEAKEKQDTLKPVQVTQVAAVLNKVYGASQNLEEDIEASFPLQQKLMLCTLVLMLRNERNKDISMGRLHEVYRRVCAKRNILALDQAEFTGTVDLVETRGILRIMRKKEPRLHKVLLQWDEEEVHAALSDKQLIASILSDTACLSK
notes: TEV site between MBP and Cdc6; source: Hi5 insect cells, baculovirus, purified (amylose, gel filtration); not shown: MBP, N-terminal, kept
B5: binds [5].

B6: 60 bp AT-rich (dsDNA)
DNA 1: CCTGCAGGCCTTTTGAAAAGCAAGCATAAAAGATCTAAACATAAAATCTGTAAAATAACA
DNA 2: TGTTATTTTACAGATTTTATGTTTAGATCTTTTATGCTTGCTTTTCAAAAGGCCTGCAGG
B6: binds (DmORC Orc1deltaN); binds [6].
